Among the data in patent publication EP4707393A1, “DOUBLE-STRANDED SIRNA, CONJUGATE THEREOF AND USE THEREOF” (CMS Research & Development Pte. Ltd., priority 2023, dated 2024) are IL-6, TNF alpha and EC50 values, retold here.

For one data set, the system named is hPBMCs. Put plainly: Immunogenicity test in hPBMCs (IL-6 and TNF-α ELISA of supernatant). The settings on record: donor 1 hPBMCs, 18-20 h. Type of data set: cell-based, human. The procedure:
1 Experimental material • 1.1 Double-stranded siRNA conjugates • 1.2 hPBMCs, purchased from Shanghai Sailybio Medical Co., LTD. • 1.3 Main reagents: Penicillin-Streptomycin (Cat. No.: 15140122), RNase-free water (Cat. No.: AM9938), IL-6 ELISA kit (Cat. No.: 555220), TNF-α ELISA kit (Cat. No.: 555212), LPS (Cat. No.: L2630), etc. 2 Experimental method • 2.1 Compound Preparation: Compounds were prepared as stock solutions with enzyme-free water. Compound weight = powder weight * purity. The concentration of prepared solutions was 900 µg/mL, followed by three-fold serial dilution with enzyme-free water. Each concentration was diluted 10-fold with 1640 medium, resulting in a final enzyme-free water content of 5.0%. • 2.2 Experimental procedure: • 2.2.1 PBMC cells were resuscitated one day in advance and incubated overnight in 1640 complete medium. • 2.2.2 On the day of the experiment, PBMC cells were centrifuged at 300 × g for 8 minutes, and the cell density was adjusted to 1.6 × 10^6 mL with 1640 complete medium. The cells were then added to a 96-well plate, 125 µL per well, and incubated in a 37 °C, 5% CO2 incubator for 15 minutes. • 2.2.3 The diluted test compounds were added to the 96-well plate according to the plate map, all in duplicate, 125 µL for each well; the positive control group and the blank group were added with an equal volume of 1640 complete culture medium containing the same amount of enzyme-free water. • 2.2.4 After gently shaking, the well plates were incubated in an incubator at 37 °C for 18-20 h. The supernatant was collected by centrifugation, and secretions of TNF-α and IL-6 were detected by ELISA. • 2.2.5 Data were analyzed using GraphPad Prism 8 software. 3 Experimental results Table 10. IL-6 and TNF-α levels in the cell supernatant of donor 1 hPBMCs treated with different doses of test compounds
For orientation: In an ELISA, binding on a coated surface is turned into a signal by an enzyme label.

Data set [1] concerns human LPA gene (Genbank number: NM_005577.4). Put plainly: Inhibitory activity against LPA mRNA, psiCHECK-2 dual-luciferase reporter vector in Huh7 cells. Type of data set: cell-based. The settings on record: Huh7 cells transfected with LPA_psiCHECK-2 plasmid, RNAiMAX transfection. The method, then:
A stock solution was prepared by dissolving in PBS and stored at -20 °C.
The human LPA gene (Genbank number: NM_005577.4) was cloned into the psiCHECK™-2 vector.
Huh7 cells were cultured in DMEM (Gibco-11995-065, 500 mL) medium, supplemented with FBS (ExCellBio-FSP500, 57 mL), Penicillin-Streptomycin solution (Hyclone-SV30010, 5.7 mL), GlutaMAX™ (Gibco-35050-061, 5.7 mL) and Non-Essential Amino Acids Solution (Gibco-11140050, 5.7 mL).
On Day 1, a method for transfection of the LPA_PSICHECK (TM)-2 plasmid is briefly described as follows: Huh7 cells were washed with DPBS, followed by digestion with 0.05% trypsin, gently pipetted into single cells in DMEM containing 10% FBS, and counted. Plasmid DNA was transferred into Huh7 cells using Fugene HD. The transfected cells were seeded into 96-well plates at a density of 10,000 cells per well, with 100 µL culture medium per well. The cells were incubated overnight in a 5% CO2 incubator at 37 °C.
On Day 2, the test compounds were diluted serially with PBS to 3 concentrations.
RNAiMAX transfection reagent was prepared by blending homogeneously with Opti-MEM at a ratio of RNAiMAX: Opti-MEM=3:47 in a 15 mL centrifuge tube as needed. The compounds were mixed with the RNAiMAX/Opti-MEM (1:1) and incubated for 15 min. The compound-containing RNAiMAX/Opti-MEM mixture was diluted 10-fold with fresh medium and blended homogeneously.
The medium in each well was aspirated, and then 100 µL of the fresh compound-containing medium was added, and then incubated in a 5% CO2, 37 °C incubator.
Experimental procedures refer to DUAL-GLO® Dual Luciferase Assay System instructions, briefly described as follows: Taking out the cells from the incubator, aspirating and discarding the supernatant, adding 75µL fresh culture medium and 75µL detection reagent, shaking for 10 minutes in the dark, and after the cells had been fully lysed, transfering100µL sample to an opaque whiteboard for detecting the Firefly luminescence signal; adding 50 µL Dual-Glo®Stop & Glo® test reagent to each well and detecting the Renilla luciferase signal after shaking for 10 minutes in the dark. The ratio of the reporter signal to the internal control reporter signal was calculated for each well.
[formula] % Inhibition = (1-Sampleratio/RNAiMAXcontrolratio) × 100% [formula]

As to “Z44: siRNA conjugate: sense SEQ ID NO:51, ligand D01 at 3' end of sense strand, antisense SEQ ID NO:82 (sense CCTGCCAAGCTTGGTCATCTA; antisense NAGATGNCCAAGCTTGGCNGGTT; ligand D01 at sense 3' end; listed as RNA; modified_base 1..2: mod_base = OTHER; note = 2'-O-methylcytidine; modified_base 3: mod_base = OTHER; note = 2'-O-methyluridine; modified_base 4: mod_base = OTHER; note = 2'-O-methylguanosine; modified_base 5..6: mod_base = OTHER; note = 2'-O-m; modified_base 1: mod_base = OTHER; note = n is mDVPU; modified_base 2: mod_base = OTHER; note = 2'-deoxyadenosine; note = 2'-O-methyladenosi)”, the IL-6 in the data set with hPBMCs (5 µg/mL) is listed as 1326.7 pg/mL; in the data set on hPBMCs (15 µg/mL) it was 1331.0 pg/mL; in the data set with hPBMCs (45 µg/mL), 1354.7 pg/mL. Moreover, the TNF alpha in the data set with hPBMCs (5 µg/mL) is 34.6 pg/mL; in the data set on hPBMCs (15 µg/mL) it was 35.2 pg/mL; in the data set with hPBMCs (45 µg/mL), 35.8 pg/mL.

By EC50 is commonly meant the midpoint of the concentration-response curve. A high value points to lower potency in that assay. As for “Z49: siRNA conjugate: sense SEQ ID NO:51, ligand D01 at 3' end of sense strand, antisense SEQ ID NO:85 (sense CCTGCCAAGCTTGGTCATCTA; antisense NAGATGNCCAAGCTTGGCNGGTT; ligand D01 at sense 3' end; listed as RNA; modified_base 1..2: mod_base = OTHER; note = 2'-O-methylcytidine; modified_base 3: mod_base = OTHER; note = 2'-O-methyluridine; modified_base 4: mod_base = OTHER; note = 2'-O-methylguanosine; modified_base 5..6: mod_base = OTHER; note = 2'-O-m; modified_base 1: mod_base = OTHER; note = n is B36; modified_base 2: mod_base = OTHER; note = 2'-deoxyadenosine; note = 2'-O-methyladenosine)”, the EC50 in data set [1] amounted to 630 pM.

In turn, “Z8: siRNA conjugate: sense SEQ ID NO:32, ligand D08 at 3' end of sense strand, antisense SEQ ID NO:56 (sense CCCTTATTGTTATACG; antisense ATCCCTCGTANAACAATAAGGGGCTGTT; 2'-OMe/2'-F modified, ligand at sense 3' end, full pattern not given here)” returned an EC50 in data set [1] of 810 pM.

With “Z45: siRNA conjugate: sense SEQ ID NO:50, ligand D01 at 3' end of sense strand, antisense SEQ ID NO:82 (sense CCTGCCAAGCTTGGTCATCTA; antisense NAGATGNCCAAGCTTGGCNGGTT; ligand D01 at sense 3' end; listed as RNA; modified_base 1..2: mod_base = OTHER; note = 2'-O-methylcytidine; modified_base 3: mod_base = OTHER; note = 2'-O-methyluridine; modified_base 4: mod_base = OTHER; note = 2'-O-methylguanosine; modified_base 5..6: mod_base = OTHER; note = 2'-O-m; modified_base 1: mod_base = OTHER; note = n is mDVPU; modified_base 2: mod_base = OTHER; note = 2'-deoxyadenosine; note = 2'-O-methyladenosi)”, the results for the IL-6 with hPBMCs (5 µg/mL), with hPBMCs (15 µg/mL) and in the data set with hPBMCs (45 µg/mL) were 1327.5 pg/mL, 1321.5 pg/mL and 1321.4 pg/mL, respectively. For the same substance, the TNF alpha in the data set with hPBMCs (5 µg/mL) came out at 35.3 pg/mL; with hPBMCs (15 µg/mL), 35.1 pg/mL; in the data set with hPBMCs (45 µg/mL) it was 34.9 pg/mL.

The substance “Z7: siRNA conjugate: sense SEQ ID NO:27, ligand D08 at 3' end of sense strand, antisense SEQ ID NO:58 (sense CCCTTATTGTTATACG; antisense TCGTANAACAATAAGGGGCTGTT; ligand D08 at sense 3' end; listed as RNA; modified_base 1..2: mod_base = OTHER; note = 2'-O-methylcytidine; modified_base 3: mod_base = OTHER; modified_base 4: mod_base = OTHER; note = 2'-O-methyluridine; modified_base 5: mod_base = OTHER; note = 2'-fluorou; modified_base 1: mod_base = OTHER; modified_base 2: mod_base = OTHER; note = 2'-fluorocytidine; note = 2'-O-methylguanosine)” gave an EC50 in data set [1] of 2410 pM.

For the substance “Z38: siRNA conjugate: sense SEQ ID NO:49, ligand D01 at 3' end of sense strand, antisense SEQ ID NO:77 (sense CAGCCCCTTATTGTTATACGA; antisense NCGTATNACAATAAGGGGCNGTT; ligand D01 at sense 3' end; listed as RNA; modified_base 1: mod_base = OTHER; note = 2'-O-methylcytidine; modified_base 2: mod_base = OTHER; note = 2'-O-methyladenosine; modified_base 3: mod_base = OTHER; note = 2'-O-methylguanosine; modified_base 4..7: mod_base = OTHER; note = 2'-O-me; note = n is mDVPU; note = 2'-deoxycytidine; modified_base 4: mod_base = OTHER; note = 2'-O-methyluridine;)”, the IL-6 is recorded as 1281.4 pg/mL in the data set with hPBMCs (5 µg/mL), 1257.1 pg/mL in the data set on hPBMCs (15 µg/mL) and 1268.3 pg/mL in the data set with hPBMCs (45 µg/mL). In addition, the TNF alpha in the data set on hPBMCs (5 µg/mL) is given as 33.5 pg/mL; in the data set on hPBMCs (15 µg/mL), 34.8 pg/mL; in the data set on hPBMCs (45 µg/mL) it was 34.4 pg/mL.

For “Z39: siRNA conjugate: sense SEQ ID NO:49, ligand D21 at 3' end of sense strand, antisense SEQ ID NO:77 (sense CAGCCCCTTATTGTTATACGA; antisense NCGTATNACAATAAGGGGCNGTT; ligand D21 at sense 3' end; listed as RNA; modified_base 1: mod_base = OTHER; note = 2'-O-methylcytidine; modified_base 2: mod_base = OTHER; note = 2'-O-methyladenosine; modified_base 3: mod_base = OTHER; note = 2'-O-methylguanosine; modified_base 4..7: mod_base = OTHER; note = 2'-O-me; note = n is mDVPU; note = 2'-deoxycytidine; modified_base 4: mod_base = OTHER; note = 2'-O-methyluridine;)”, the IL-6 with hPBMCs (5 µg/mL) was 1333.6 pg/mL; in the data set on hPBMCs (15 µg/mL), 1304.8 pg/mL; in the data set on hPBMCs (45 µg/mL), 1297.0 pg/mL. The TNF alpha in the data set with hPBMCs (5 µg/mL) turned out to be 31.4 pg/mL; in the data set on hPBMCs (15 µg/mL), 32.6 pg/mL; in the data set on hPBMCs (45 µg/mL), 33.3 pg/mL.
